# “Also recorded” adds a separate entry of the source.
# Key:
# [1] = tested on: mp53/Ras transformed cells and CAPAN-2 cells; experiment: Immunoblot of p62 and LC3 in cells expressing autophagy modulators; format: cell-based; details: cells expressing the protein vs vector control
# Source text: Thus, the effects of Plac8 KD on both tumor formation and autophagy can be suppressed by constitutive activation of Rab7.
# (§1) Moreover, the molecular machinery employed in autophagosomal/lysosomal fusion, such as Rab7, is required for endosomal/lysosomal fusion, which is also required for tumor formation in some cancers.
# To determine if the Plac8 KD-induced loss of tumor formation is specifically due to a loss of autophagy completion, Atg12, a gene required for autophagosomal formation, was overexpressed in Plac8 KD cells.
# YAMC, vector, mp53, Ras, and mp53/Ras cells were cultured for two days at 39 C in RPMI with 10% FBS medium and gentamicin in collagen-I coated 15 cm dishes. HT-29, CAPAN-2, PANC-1 and Panc 10.05 cells were cultured for two days at 37 C in maintenance media without selective antibiotics on 15 cm dishes. […] Protein concentration was quantified using Bradford reagent (BioRad) and a Genesys 1 0UV spectrophotometer (Spectronic Unicam). […]
# [2] = tested on: mp53/Ras transformed cells and CAPAN-2 cells; experiment: Immunocompromised mouse tumorigenicity assay, cells expressing autophagy modulators; format: in vivo; details: cells expressing the protein or shRNA vs vector control, 5×10^5 cells per injection, 4 weeks mp53/Ras, 5 weeks CAPAN-2
# Experimental: To determine whether cooperative up-regulation of autophagy is required for tumorigenesis Atg12, a gene involved in autophagosome formation, was knocked-down using two independent constructs in mp53/RasV12 and Capan-2 cells. In addition, a genetic rescue experiment was performed by introducing a shRNA resistant form of ATG12 into these cell backgrounds to test for ATG12 specificity of the observed effects. Tumor formation was inhibited by Atg12 KD in both mp53/Ras and CAPAN-2 cell lines and was rescued by expression of the exogenous shRNA resistant Atg12 (FIG. 4.5a, 4.5c).
# Cells were cultured on 15 cm dishes for two days without selective antibiotics at 39 C for mp53/Ras cells and at 37 C for HT-29, CAPAN-2, PANC-1, and 5 Panc10.05. Cells were plated at the following densities: mp53/Ras—7.5×10^5, HT-29 —1.5×10^6, CAPAN-2 —4×10^6, PANC—4×10^6, and PANC 10.05—2×10^6. Cells were trypsinized, counted and re-suspended in RPMI medium lacking supplements for mp53/Ras, CAPAN-2, and Panc10.05, and DMEM lacking supplements for HT-29 and PANC-1 at a density of 5×10^5/100 ul for mp53/Ras and CAPAN-2 cells, 1.25×10^5/100 ul for HT-29 cells, 5×10^6/100 ul for PANC-1, 2×10^6/100 ul for Panc10.05. Matrigel (BD biosciences) was mixed with PANC-1 and Panc10.05 cell/medium mixture at a 1:1 ratio. Cell mixtures were then injected intra-dermally, bilaterally into the flanks of CD1-Foxn1 nude mice (Uracell) […]) in the following numbers: mp53/Ras cells, HT29 1.25×10^5 cells, 5×10^5 CAPAN-2-cells. Cell mixtures were injected intradermally, bilaterally into the flanks of NOD/SCID (UCAR-20060-166 (1)) mice in the following cell numbers per injection: PANC-1 —2.5×10^6 cells and Panc10.05 —1×10^6 cells. Tumor volume was measured every week for 4 weeks for mp53/Ras and HT-29 cells, 5 weeks for CAPAN-2 cells, and 6 weeks for PANC-1.
# [3] = tested on: mp53/Ras transformed and CAPAN-2 cells; experiment: Endocytosis of fluorescently labeled dextran; format: cell-based; details: 50 uM Alexa-488 dextran for 1 hr; confocal microscopy and FACS
# Experimental: as §1
# Cells were plated at 2.5×10^5 cells for vector and Rab5a DN mp53/Ras cells on collagen-I coated 10 cm dishes, and 7.5×10^5 cells for vector and Rab5a DN CAPAN-2 cells on 10 cm dishes and allowed to proliferate for two days in maintenance media. Cells were then treated with 50 uM of Alexa-488 labeled 10,000 MW dextran (Invitrogen) for 1 hr in maintenance medium. The cells were then washed 3× with PBS and trypsinized. Cells were pelleted, resuspended in PBS with 1% BSA, transferred to FACS tubes (Falcon), and placed on ice. DAPI was added to a final concentration of […] and cells were FACS analyzed for Alexa-488 signal, with DAPI exclusion of dead cells. To image cells mp53/Ras and CAPAN-2 cells infected with vector control virus or stabily expressing Rab5a DN were plated onto glass coverslips as described in the immunofluorescent staining of cells section. Cells were then treated with 50 uM of Alexa-488 labeled 10,000 MW dextran for 1 hr in maintenance medium. The media containing dextran was removed and the cells were washed 3 times with PBS. […]
Molecule,p62 and LC3 protein levels [1],tumor formation in nude mice [2],tumor formation in nude mice ([2]; listed as DN Rab5a),endocytosis of Alexa488 labeled dextran [3]
"Rab5a DN: 3× Flag-tagged Rab5a S34N dominant negative mutant, inhibitor of endocytosis (protein, UniProt P20339 1-215, looked up, variant S34N, 3x Flag tag) Ras-related protein Rab-5A: MASRGATRPNGPNTGNKICQFKLVLLGESAVGKNSLVLRFVKGQFHEFQESTIGAAFLTQTVCLDDTTVKFEIWDTAGQERYHSLAPMYYRGAQAAIVVYDITNEESFARAKNWVKELQRQASPNIVIALSGNKADLANKRAVDFQEAQSYADDNSLLFMETSAKTSMNVNEIFMAIAKKLPKNEPQNPGANSARGRGVDLTEPTQPTRNQCCSN",no effect on p62 or LC3 levels,increased tumor size over vector control,slightly enhanced tumor formation in transformed YAMC cells and no effect on Capan-2 cells,inhibits endocytosis of Alexa488 labeled dextran
"Atg12: over-expressed 3× Flag-tagged Atg12, a gene required for autophagosomal formation (protein, UniProt O94817 1-140, looked up, 3x Flag tag, over-expressed 3× Flag-tagged Atg12, a gene required for autophagosomal formation) Ubiquitin-like protein ATG12: MAEEPQSVLQLPTSIAAGGEGLTDVSPETTTPEPPSSAAVSPGTEEPAGDTKKKIDILLKAVGDTPIMKTKKWAVERTRTIQGLIDFIKKFLKLVASEQLFIYVNQSFAPSPDQEVGTLYECFGSDGKLVLHYCKSQAWG",p62 and LC3 protein levels were suppressed,tumor inhibitory; also recorded: inhibits tumor formation,,

# From patent publication US20130184223A1, “METHODS AND COMPOSITIONS RELATED TO MODULATING AUTOPHAGY” (UNIVERSITY OF ROCHESTER, priority 2010, published 2013)
